Here are results for one molecule from patent US10314894B2, “Treatment of cardio-renal disease using PCSK6” (THE CLEVELAND CLINIC FOUNDATION, priority 2014, dated 2019).

One assay deals with T1, corin variant T555I (Homo sapiens, UniProt Q9Y5Q5, T555I).
T1 construct: expressed in transfected cells; host or cells: HEK293
T1 sequence (Q9Y5Q5 1-1042 T555I): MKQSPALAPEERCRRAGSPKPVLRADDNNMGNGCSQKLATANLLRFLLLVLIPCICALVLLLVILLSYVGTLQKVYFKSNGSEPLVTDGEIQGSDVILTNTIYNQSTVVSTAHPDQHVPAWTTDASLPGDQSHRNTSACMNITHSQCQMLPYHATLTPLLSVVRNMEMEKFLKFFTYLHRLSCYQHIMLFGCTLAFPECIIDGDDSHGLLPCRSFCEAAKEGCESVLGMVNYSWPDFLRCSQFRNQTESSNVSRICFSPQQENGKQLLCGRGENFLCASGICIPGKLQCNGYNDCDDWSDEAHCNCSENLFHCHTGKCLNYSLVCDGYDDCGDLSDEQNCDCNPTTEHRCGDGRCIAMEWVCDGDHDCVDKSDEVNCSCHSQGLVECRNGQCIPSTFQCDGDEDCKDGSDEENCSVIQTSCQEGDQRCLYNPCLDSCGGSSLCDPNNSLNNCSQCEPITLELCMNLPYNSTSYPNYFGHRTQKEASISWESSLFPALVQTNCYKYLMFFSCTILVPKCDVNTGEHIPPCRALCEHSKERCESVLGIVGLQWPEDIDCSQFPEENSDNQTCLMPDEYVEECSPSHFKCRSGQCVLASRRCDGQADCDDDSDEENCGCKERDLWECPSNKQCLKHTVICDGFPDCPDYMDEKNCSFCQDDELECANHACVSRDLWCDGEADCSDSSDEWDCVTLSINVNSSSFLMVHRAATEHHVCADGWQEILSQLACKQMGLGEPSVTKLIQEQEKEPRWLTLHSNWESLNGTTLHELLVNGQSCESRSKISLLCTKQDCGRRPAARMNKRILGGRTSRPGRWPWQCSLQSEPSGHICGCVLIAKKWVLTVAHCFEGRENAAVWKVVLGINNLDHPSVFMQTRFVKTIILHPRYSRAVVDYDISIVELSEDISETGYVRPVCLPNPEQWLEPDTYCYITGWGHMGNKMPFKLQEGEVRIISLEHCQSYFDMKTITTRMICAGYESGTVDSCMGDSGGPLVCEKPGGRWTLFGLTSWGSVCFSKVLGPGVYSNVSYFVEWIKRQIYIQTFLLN
Briefly: PCSK6-mediated corin activation in HEK293 cells, corin variant T555I. To be noted: Western. In kind it is cell-based. From the text:
(§1) Plasmids expressing human corin WT and mutants R801A, S985A, T555I, Q568P, T555I/Q568P, K317E, S472G and R539C were reported previously. Dong, N. et al., J Biol Chem 289, 17909-17916 (2014); Knappe et al., J Biol Chem 278, 52363-52370 (2003); Wu et al., J Biol Chem 277, 16900-16905. (2002). Plasmids expressing human PCSK1-9 were made by cloning respective cDNAs into pcNDA3.1 vector. Recombinant corin and PCSK proteins encoded by these plasmids contained a C-terminal V5 or flag tag for protein detection in Western blotting.
(§2) HEK293 and HL-1 cells were transfected with corin or PCSK6 expression plasmids. After 48-72 h, cells were lysed in a buffer containing 25 mM Tris-HCl, pH 7.4, 150 mM NaCl, 1 mM EDTA, 1% (v/v) NP-40, and 1% (v/v) protease inhibitor cocktail. Recombinant corin and PCSK6 proteins were immunoprecipitated with an anti-V5 or anti-flag antibody. Western blotting was carried out to analyze corin expression and activation or PCSK6 expression with or without reducing agents. Percentage of corin activation (corin-p vs. corin fragments) was quantified by densitometric analysis of Western blots.

The target in a further assay is T2, corin mutant K317E (Homo sapiens, UniProt Q9Y5Q5, K317E).
T2 construct: expressed in transfected cells; host or cells: HEK293
T2 sequence (Q9Y5Q5 1-1042 K317E): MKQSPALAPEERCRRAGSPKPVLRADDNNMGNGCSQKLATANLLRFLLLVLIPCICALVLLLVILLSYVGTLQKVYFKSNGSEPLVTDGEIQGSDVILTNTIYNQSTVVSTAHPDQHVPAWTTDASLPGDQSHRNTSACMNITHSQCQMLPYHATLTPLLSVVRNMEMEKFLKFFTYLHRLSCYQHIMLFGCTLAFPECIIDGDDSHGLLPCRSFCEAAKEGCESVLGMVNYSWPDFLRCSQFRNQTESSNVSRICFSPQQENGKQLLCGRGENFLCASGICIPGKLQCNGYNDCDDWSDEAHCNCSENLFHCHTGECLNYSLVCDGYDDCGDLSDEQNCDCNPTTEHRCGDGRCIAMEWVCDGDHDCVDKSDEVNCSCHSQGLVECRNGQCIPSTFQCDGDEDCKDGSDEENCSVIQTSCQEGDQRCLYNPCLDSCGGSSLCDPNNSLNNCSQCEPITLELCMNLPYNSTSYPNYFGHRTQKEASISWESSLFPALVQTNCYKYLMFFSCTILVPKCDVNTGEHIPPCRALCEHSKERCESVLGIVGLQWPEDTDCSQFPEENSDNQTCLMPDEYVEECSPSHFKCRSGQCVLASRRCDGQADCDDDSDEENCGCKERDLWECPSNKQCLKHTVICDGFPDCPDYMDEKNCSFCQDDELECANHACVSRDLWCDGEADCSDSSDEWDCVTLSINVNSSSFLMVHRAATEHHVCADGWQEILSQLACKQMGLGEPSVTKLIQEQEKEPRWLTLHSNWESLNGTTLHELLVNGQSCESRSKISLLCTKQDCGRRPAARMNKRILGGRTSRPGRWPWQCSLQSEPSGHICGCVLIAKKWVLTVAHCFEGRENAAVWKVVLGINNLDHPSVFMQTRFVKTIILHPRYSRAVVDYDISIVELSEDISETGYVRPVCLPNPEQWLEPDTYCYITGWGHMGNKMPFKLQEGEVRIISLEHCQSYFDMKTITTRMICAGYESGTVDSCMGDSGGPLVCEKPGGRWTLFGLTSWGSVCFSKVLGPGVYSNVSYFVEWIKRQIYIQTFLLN
Briefly: PCSK6-mediated corin activation in HEK293 cells, corin mutant K317E. In kind it is cell-based. Particulars: Western, densitometry.
Text: as §1, §2

B1: proprotein convertase subtilisin/kexin-6 (protein, listed as Homo sapiens)
chain: MPPRAPPAPGPRPPPRAAAATDTAAGAGGAGGAGGAGGPGFRPLAPRPWRWLLLLALPAACSAPPPRPVYTNHWAVQVLGGPAEADRVAAAHGYLNLGQIGNLEDYYHFYHSKTFKRSTLSSRGPHTFLRMDPQVKWLQQQEVKRRVKRQVRSDPQALYFNDPIWSNMWYLHCGDKNSRCRSEMNVQAAWKRGYTGKNVVVTILDDGIERNHPDLAPNYDSYASYDVNGNDYDPSPRYDASNENKHGTRCAGEVAASANNSYCIVGIAYNAKIGGIRMLDGDVTDVVEAKSLGIRPNYIDIYSASWGPDDDGKTVDGPGRLAKQAFEYGIKKGRQGLGSIFVWASGNGGREGDYCSCDGYTNSIYTISVSSATENGYKPWYLEECASTLATTYSSGAFYERKIVTTDLRQRCTDGHTGTSVSAPMVAGIIALALEANSQLTWRDVQHLLVKTSRPAHLKASDWKVNGAGHKVSHFYGFGLVDAEALVVEAKKWTAVPSQHMCVAASDKRPRSIPLVQVLRTTALTSACAEHSDQRVVYLEHVVVRTSISHPRRGDLQIYLVSPSGTKSQLLAKRLLDLSNEGFTNWEFMTVHCWGEKAEGQWTLEIQDLPSQVRNPEKQGKLKEWSLILYGTAEHPYHTFSAHQSRSRMLELSAPELEPPKAALSPSQVEVPEDEEDYTAQSTPGSANILQTSVCHPECGDKGCDGPNADQCLNCVHFSLGSVKTSRKCVSVCPLGYFGDTAARRCRRCHKGCETCSSRAATQCLSCRRGFYHHQEMNTCVTLCPAGFYADESQKNCLKCHPSCKKCVDEPEKCTVCKEGFSLARGSCIPDCEPGTYFDSELIRCGECHHTCGTCVGPGREECIHCAKNFHFHDWKCVPACGEGFYPEEMPGLPHKVCRRCDENCLSCAGSSRNCSRCKTGFTQLGTSCITNHTCSNADETFCEMVKSNRLCERKLFIQFCCRTCLLAG
modifications: C-terminal FLAG tag
As to B1, the PCSK6-mediated activation cleavage result in the assay with corin variant T555I is recorded as “detected”. For the same molecule, the “reduction in PCSK6-mediated corin activation compared with WT corin” value in the assay with corin mutant K317E came out at 39%.
